From IntAct's records for PubMed 21035448

B1: Regulator of G-protein signaling 4 (Rattus norvegicus (Rat)), P49799 (parent)
chain: MCKGLAGLPASCLRSAKDMKHRLGFLLQKSDSCEHSSSHSKKDKVVTCQRVSQEEVKKWAESLENLINHECGLAAFKAFLKSEYSEENIDFWISCEEYKKIKSPSKLSPKAKKIYNEFISVQATKEVNLDSCTREETSRNMLEPTITCFDEAQKKIFNLMEKDSYRRFLKSRFYLDLTNPSSCGAEKQKGAKSSADCTSLVPQCA
partner: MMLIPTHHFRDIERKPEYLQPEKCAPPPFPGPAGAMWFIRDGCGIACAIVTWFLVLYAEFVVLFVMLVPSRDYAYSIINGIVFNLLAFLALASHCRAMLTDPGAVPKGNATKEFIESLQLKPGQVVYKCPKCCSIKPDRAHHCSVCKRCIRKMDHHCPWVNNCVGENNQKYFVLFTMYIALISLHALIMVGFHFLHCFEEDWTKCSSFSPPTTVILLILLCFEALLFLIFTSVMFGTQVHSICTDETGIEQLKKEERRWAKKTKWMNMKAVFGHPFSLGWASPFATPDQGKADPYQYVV

Variants of: B1
Details: with zdhc3_mouse Zdhhc3, Q8R173

| Variant | effect of a mutation on the interaction |
| --- | --- |
| C2S | disrupting interaction |
